Data on two molecules can be found in patent US20200207869A1 (INSERM INSTITUT NATIONAL DE LA SANTE ET DE LA RECHERCHE …, published 2020).

Where only a bound is given, the exact number is not on record here.

One experiment addresses T1, mD1-D2-HPC4 fragment (murine, UniProt Q8CIZ8 23-762).
T1 construct: range 23-762
As to the kind of experiment: ELISA, sdAb immobilized. Background: ELISA stands for enzyme-linked immunosorbent assay.

Experiment [1] has as its target T2, purified recombinant murine VWF (murine, UniProt Q8CIZ8 764-2813).
T2 construct: also called rmVWF
As to the kind of experiment: ELISA, sdAb immobilized.
Procedure: (§1) Wells were then washed three times with 75 μl/well using TBS-T. Residual peroxidase activity was detected by measuring peroxidase-mediated hydrolysis of 3,3′,5,5′-tetramethylbenzidine.
(§2) Negative binding (−) was defined as optical density (OD) being ≤0.5, moderate positive binding (+) was defined as OD being >0.5 and <1.0, strongly positive binding (++) was defined as OD being ≥1.0.

Procedure for mD1-D2-HPC4 fragment: as §1, §2

B1: sdAb KB-VWF-011 (VHH)
VHH: QVQLVQSGGGLVQAGDSLRLSCAASGGTFSNYAMGWFRQTPGKEREFVARISRSGHRTDYADSAKGRFTISRDNAKNTVYLQMNSLKPEDTAVYYCAARSDWSIATTATSYDYWGQGTQVTVSS
notes: Single-domain antibody against the VWF D'D3 domain; no tag stated
As to B1, the OD (with mD1-D2-HPC4 fragment; in experiment [1]) was at most 0.5 od each time.

B2: sdAb KB-VWF-013 (VHH)
VHH: QVQLVQSGGGLVQAGDSLRLSCAASGRTFIRYAMAWFRQAPGKEREFVAAIPQSGGRSYYADSVKGRFTISRDNAKNTVYLQMNSLKPEDTAVYSCAATSTYYGRSAYSSHSGGYDYWGQGTQVTVSS
notes: as for B1
With B2, the OD with mD1-D2-HPC4 fragment is at most 0.5 od.
